Where “and” joins values, the source holds several entries; their conditions need not be identical. Equal values may be shown once.
Key:
[1] = biological target: T1, mouse ligand (single-chain IL27: EBI3 linked to IL-27 p28) (Mus musculus, UniProt O35228+Q8K3I6); test: Surface plasmon resonance (BIACORE 3000) kinetic rate and affinity constants; format: binding; conditions: SPR
T1 construct: purchased R&D Systems
T1 sequence (O35228+Q8K3I6 with tags, fused parts or gaps): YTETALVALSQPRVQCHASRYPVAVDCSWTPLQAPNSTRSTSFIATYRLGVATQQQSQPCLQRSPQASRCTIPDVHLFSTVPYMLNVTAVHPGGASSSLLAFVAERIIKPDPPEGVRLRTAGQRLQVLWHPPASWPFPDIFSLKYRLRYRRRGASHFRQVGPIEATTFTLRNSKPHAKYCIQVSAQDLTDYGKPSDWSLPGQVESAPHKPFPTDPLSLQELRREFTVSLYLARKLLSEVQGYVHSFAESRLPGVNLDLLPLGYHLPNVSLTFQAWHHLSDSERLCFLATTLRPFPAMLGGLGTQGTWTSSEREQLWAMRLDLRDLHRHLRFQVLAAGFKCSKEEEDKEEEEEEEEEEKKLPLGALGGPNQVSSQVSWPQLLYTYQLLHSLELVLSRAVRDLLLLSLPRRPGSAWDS
Experimental: (§1) Kinetic rate and affinity constant values for the mouse (IL27RAm(mFc1), Example 1) and human (IL27RA-Fc5, Example 2) soluble receptors were obtained by surface plasmon resonance (SPR) using an automated instrument (BIACORE 3000; Biacore International AB, Uppsala, Sweden). The mouse soluble receptor was tested against mouse ligand (lot A1418F), and the human soluble receptor was tested against both mouse (A1426F) and human (A1534F) ligands. For determination of the kinetic rate constants for the receptor-ligand interactions, the gp130 molecule was not included as part of the receptor complex.
(§2) The IL27 ligands used in this study were single-chain molecules comprising EBI3 connected by its C-terminus to the N-terminus of IL-27 p28 via a polypeptide linker. (R&D Systems) Each of the ligands included an amino-terminal peptide tag.
(§3) For the mouse IL27RA study, the soluble receptor was captured onto the chip surface by an isotype-specific anti-mouse Fc antibody (obtained from Jackson ImmunoResearch Laboratories, Inc., West Grove, Pa.) covalently immobilized to the chip (BIACORE CM5 chip) using the standard amine coupling protocol specified by the instrument manufacturer. For the human IL27RA studies, the soluble receptor was directly and covalently immobilized to the chip via the amine coupling protocol. In all studies, ligand was injected over the active (receptor-bound) surface at varying concentrations to obtain a series of binding curves.
(§4) Experimental conditions were optimized for determination of kinetic rate constant values. The molecular densities of the soluble receptor protein loaded onto the chip surface were targeted to obtain maximum IL27 binding levels (Rmax) of ≦20 RU. The analyte (ligand) was injected over the receptor surface at a flow rate of […] at a concentration range of approximately 0.05 to 10 nM, allowing for an association phase of 3 minutes and a dissociation phase of 10 minutes. The mouse soluble receptor surface was regenerated with two 30-second injections at 50 μL/minute of glycine, pH 2.0. The human soluble receptor surface was similarly regenerated with a single 30-second injection.
(§5) All data were assessed using software provided with the instrument (BIACORE Evaluation software v. 3.2). The binding curves were globally fitted to a 1:1 binding model corrected for mass transport limitation resulting from the fast on-rate values (ka) obtained. Statistical analysis of the fits of the experimental binding curves versus theoretical curves gave standard error values for ka and kd of less than 2%, and chi^2 values of less than 2% of Rmax for all interactions tested, providing reasonable confidence in the kinetic rate constant values obtained.

[2] = biological target: T2, human ligand (single-chain IL27: EBI3 linked to IL-27 p28) (Homo sapiens, UniProt Q14213+Q8NEV9); test: as above; format: binding; conditions: SPR
T2 construct: purchased R&D Systems
T2 sequence (Q14213+Q8NEV9 with tags, fused parts or gaps): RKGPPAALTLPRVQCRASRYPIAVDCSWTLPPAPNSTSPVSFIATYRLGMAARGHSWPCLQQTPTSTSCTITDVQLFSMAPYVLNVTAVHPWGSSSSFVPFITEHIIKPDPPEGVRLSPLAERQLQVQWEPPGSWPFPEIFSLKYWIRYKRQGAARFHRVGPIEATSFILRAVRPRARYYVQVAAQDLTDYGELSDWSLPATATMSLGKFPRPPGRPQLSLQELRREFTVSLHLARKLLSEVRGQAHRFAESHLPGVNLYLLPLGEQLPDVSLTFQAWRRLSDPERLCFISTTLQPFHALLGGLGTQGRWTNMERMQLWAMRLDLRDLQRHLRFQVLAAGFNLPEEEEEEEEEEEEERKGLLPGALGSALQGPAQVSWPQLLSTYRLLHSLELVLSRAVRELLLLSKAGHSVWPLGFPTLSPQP
Experimental: as §1, §2, §3, §4, §5

[3] = biological target: T3, single-chain mouse IL-27 (Mus musculus, UniProt O35228+Q8K3I6); test: IL-27 inhibition of IL-2 production neutralized by IL-27RA Fc (third set of experiments); format: cell-based; conditions: + IL-27 (10 ng/ml)
T3 sequence (O35228+Q8K3I6 with tags, fused parts or gaps): T1 sequence (O35228+Q8K3I6 with tags, fused parts or gaps)
Experimental: Naïve mouse CD4 T-cells were isolated as described above. For testing of the neutralizing mAbs, the naïve CD4 T cells were preincubated for 30 minutes at 37 degrees C. with graded concentrations (60, 30, 15, 7.5, 3.75, 1.875.micro.g/ml) of either neutralizing rat anti-mouse IL27RA mAb (each mAb tested separately), rat IgG1 isotype control mAb, rat IgG2a isotype control mAb, or no mAb. […] The CD4 T cells (4×10^5/well) were then transferred to anti-CD3 coated tissue culture plates. Single-chain mouse IL-27 (10 ng/ml) was then added to the plates. Duplicate plates were set up for all experimental conditions. The plates were then cultured at 37 degrees for up to 72 hours.
For testing of the soluble receptor, single-chain mouse IL-27 (10 ng/ml) was preincubated for 30 minutes at 37 degrees C. with either IL27RAm(mFc1) (10.0 and 5.0.micro.g/ml), IL27RA-Fc5, mouse Fc1 protein (10.0 and 5.0.micro.g/ml), human Fc5 protein (10.0 and 5.0.micro.g/ml), or no recombinant protein in wells of the anti-CD3 coated plates. 4×10^5 CD4^+ CD62L high cells were added to the wells. Duplicate plates were set up for all experimental conditions. The plates were then cultured at 37 degrees for up to 72 hours. Cell supernatants were collected from one set of plates at 48 hours and from the duplicate set of plates at 72 hours. The supernatants were stored frozen at −80° C.

- ka ([1]; 1:1 binding model): 8.1e+06 M⁻¹ s⁻¹
- kd ([1]; 1:1 binding model): 0.0018 s⁻¹
- Kd ([1]; Kd=kd/ka): 0.22 nM
- ka ([2]; 1:1 binding model): 1e+07 M⁻¹ s⁻¹
- kd ([2]; 1:1 binding model): 0.0019 s⁻¹
- Kd ([2]; Kd=kd/ka): 0.19 nM
- IL-2 concentration ([3]; 48 hr, protein conc. 5 (μg/ml; Fc controls in molar equiv.)): 5784.11 pg/mL
- IL-2 concentration ([3]; 48 hr, protein conc. 10 (μg/ml; Fc controls in molar equiv.), listed as hIL-27RA): 5774.94 pg/mL and 5333.6 pg/mL
- IL-2 concentration ([3]; 72 hr, protein conc. 5 (μg/ml; Fc controls in molar equiv.)): 1869.62 pg/mL
- IL-2 concentration ([3]; 72 hr, protein conc. 10 (μg/ml; Fc controls in molar equiv.), listed as hIL-27RA): 28607.63 pg/mL and 17481.17 pg/mL
Substance: human IL-27RA-Fc5: Extracellular domain of human IL27RA (amino acids 1 to 512 of SEQ ID NO:3) fused to Fc5, effector minus human gamma1 Fc; SEQ ID NO:16
